In paper PMC7671685:
Where “and” joins values, the source holds several entries; their conditions need not be identical. Equal values may be shown once.

Molecular target: proinsulin 2 (mouse (endogenous in MIN6))
Assay: non-reducing SDS-PAGE of immunoprecipitates (disulfide-linked forms) + mass spectrometry of the excised band; MIN6 cells treated with 50 µM olanzapine; pulse-chase, immunoprecipitation with anti-insulin #8138, non-reducing SDS-PAGE and autoradiography; for mass spectrometry cells were lysed in 1% NP40 with 10 mM NEM and the HMP-1 band was excised

Substance: proinsulin 2 (natural protein)
- stoichiometry N: 2 and 3
